# Data published in FireProtDB.
# B1: Ribonuclease HI, P0A7Y4 (parent)
# chain: MLKQVEIFTDGSCLGNPGPGGYGAILRYRGREKTFSAGYTRTTNNRMELMAAIVALEALKEHCEVILSTDSQYVRQGITQWIHNWKKRGWKTADKKPVKNVDLWQRLDAALGQHQIKWEWVKGHAGHPENERCDELARAAAMNPTLEDTGYQVEV
# Variants of: B1
# Conditions: Escherichia coli (strain K12); pH 3; Thermal; CD; Gly-HCl buffer 10 mM; NaCl 0.1 M; reversible: yes; structure 2RN2; whole UniProt chain shown
Variant,"change of melting temperature, mutant - wild type (higher = more stable)",ddG of mutation (higher = less stable)
V74A,-7.6 °C,2.2 kcal/mol
V74L,3.7 °C,-1.1 kcal/mol
V74I,2.4 °C,-0.7 kcal/mol

# Same assay, conditions: Escherichia coli (strain K12); pH 5.5; Thermal; CD; sodium acetate 20 mM; NaCl 0.1 M; reversible: yes; structure 2RN2; whole UniProt chain shown
Variant,"change of melting temperature, mutant - wild type (higher = more stable)",ddG of mutation (higher = less stable)
V74A,-12.7 °C,3.4 kcal/mol
V74L,3.3 °C,-0.9 kcal/mol
V74I,2.1 °C,-0.6 kcal/mol

# Same assay, conditions: Escherichia coli (strain K12); pH 3; 50.1 °C; Thermal; CD; glycine-HCl 10 mM; NaCl 0.1 M; reversible: yes; structure 2RN2; whole UniProt chain shown
row,Variant,ddG of mutation (higher = less stable)
1,A24V,-0.73 kcal/mol
2,H62D,-0.67 kcal/mol
3,H62R,0.03 kcal/mol
4,H62P,-1 kcal/mol
5,H62P T40A K122R,-0.52 kcal/mol
6,A52V,-1.7 kcal/mol
7,K95N,-0.88 kcal/mol

# Same assay, conditions: Escherichia coli (strain K12); pH 3; Thermal; CD; glycine-HCl 10 mM; NaCl 0.1 M; reversible: yes; structure 2RN2; whole UniProt chain shown
Variant,Tm,"change of melting temperature, mutant - wild type (higher = more stable)",unfolding enthalpy (van 't Hoff)
A24V,52.5 °C,2.4 °C,109 kcal/mol
H62D,52.3 °C,2.2 °C,118 kcal/mol
H62R,50 °C,-0.1 °C,114 kcal/mol
H62P,53.5 °C,3.4 °C,110 kcal/mol
H62P T40A K122R,51.8 °C,1.7 °C,109 kcal/mol
Q80L,51.1 °C,1 °C,114 kcal/mol
A52V,55.6 °C,5.5 °C,128 kcal/mol
K95N,53 °C,2.9 °C,109 kcal/mol

# Same assay, conditions: Escherichia coli (strain K12); pH 5.5; Thermal; CD; Sodium acetate 20 mM; NaCl 0.1 M; reversible: yes; structure 2RN2; whole UniProt chain shown
Variant,Tm,"change of melting temperature, mutant - wild type (higher = more stable)",unfolding enthalpy (van 't Hoff)
A24V,55.9 °C,3.2 °C,101 kcal/mol
H62D,52.1 °C,-0.6 °C,97.8 kcal/mol
H62R,54 °C,1.3 °C,97.1 kcal/mol
H62P,56.8 °C,4.1 °C,102 kcal/mol
H62P T40A K122R,55.8 °C,3.1 °C,96.9 kcal/mol
Q80L,53.5 °C,0.8 °C,94.6 kcal/mol
A52V,60.5 °C,7.8 °C,87.5 kcal/mol

# Same assay, conditions: Escherichia coli (strain K12); pH 5.5; 52.7 °C; Thermal; CD; Sodium acetate 20 mM; NaCl 0.1 M; reversible: yes; structure 2RN2; whole UniProt chain shown
row,Variant,ddG of mutation (higher = less stable)
1,H62R,-0.36 kcal/mol
2,H62P,-1.1 kcal/mol
3,K95N,-0.88 kcal/mol

# Same assay, conditions: Escherichia coli (strain K12); pH 3; 49.8 °C; Thermal; CD; glycine-HCl 10 mM; reversible: yes; structure 2RN2; whole UniProt chain shown
row,Variant,ddG of mutation (higher = less stable)
1,H62P,-1 kcal/mol
2,K91R K95G,-1.6 kcal/mol
3,K91R D94E,0.6 kcal/mol
4,G77A,0.9 kcal/mol
5,K95A,-0.1 kcal/mol
6,K95N,-0.9 kcal/mol

# Same assay, conditions: Escherichia coli (strain K12); pH 3; Thermal; CD; glycine-HCl 10 mM; reversible: yes; structure 2RN2; whole UniProt chain shown
Variant,Tm,"change of melting temperature, mutant - wild type (higher = more stable)",unfolding enthalpy (van 't Hoff)
H62P,53.2 °C,3.4 °C,110 kcal/mol
K91R K95G,55 °C,5.2 °C,114 kcal/mol
K91R D94E,47.8 °C,-2 °C,93.8 kcal/mol
G77A,46.9 °C,-2.9 °C,
K95G,49.8 °C,5.7 °C,102 kcal/mol
K95N,49.8 °C,2.9 °C,109 kcal/mol

# Same assay, conditions: Escherichia coli (strain K12); pH 5.5; 25 °C; GdnHCl; CD; Sodium acetate 20 mM; reversible: yes; structure 2RN2; whole UniProt chain shown
Variant,ddG of mutation (higher = less stable),denaturant m value,denaturant midpoint (higher = more stable),unfolding free energy
H62P,-0.74 kcal/mol,4.98 kcal/mol/M,1.98 M,9.89 kcal/mol

# Same assay, conditions: Escherichia coli (strain K12); pH 5.5; 52 °C; Thermal; CD; Sodium acetate 20 mM; reversible: yes; structure 2RN2; whole UniProt chain shown
row,Variant,ddG of mutation (higher = less stable)
1,H62P,-1.1 kcal/mol

# Same assay, conditions: Escherichia coli (strain K12); pH 5.5; Thermal; CD; Sodium acetate 20 mM; reversible: yes; structure 2RN2; whole UniProt chain shown
Variant,Tm,"change of melting temperature, mutant - wild type (higher = more stable)",unfolding enthalpy (van 't Hoff)
H62P,56.1 °C,4.1 °C,102 kcal/mol
K95G,52 °C,6.8 °C,90.4 kcal/mol
K95A,52 °C,0.4 °C,96.4 kcal/mol
K95N,52 °C,3.2 °C,90 kcal/mol

# Same assay, conditions: Escherichia coli (strain K12); pH 5.5; Thermal; CD; glycine-HCl 10 mM; reversible: yes; structure 2RN2; whole UniProt chain shown
Variant,Tm,"change of melting temperature, mutant - wild type (higher = more stable)",unfolding enthalpy (van 't Hoff)
K91R K95G,57.8 °C,5.8 °C,92 kcal/mol
K91R D94E,50.2 °C,-1.8 °C,87.5 kcal/mol

# Same assay, conditions: Escherichia coli (strain K12); pH 5.5; 25 °C; Urea; CD; sodium acetate 20 mM; KCl 50 mM; structure 2RN2; whole UniProt chain shown
Variant,ddG of mutation (higher = less stable),denaturant m value,unfolding free energy
I53D,4.1 kcal/mol,2 kcal/mol/M,5.6 kcal/mol
I53L,1.4 kcal/mol,2.3 kcal/mol/M,8.3 kcal/mol
I53F,3.9 kcal/mol,2 kcal/mol/M,5.8 kcal/mol

# Same assay, conditions: Escherichia coli (strain K12); pH 5.5; 49.8 °C; Thermal; CD; Sodium acetate 20 mM; reversible: yes; structure 2RN2; whole UniProt chain shown
row,Variant,ddG of mutation (higher = less stable)
1,K95G,-1.9 kcal/mol
2,K95A,-0.1 kcal/mol
3,K95N,-0.9 kcal/mol
